Assay results reported in the DeepSol protein solubility set.

Assay: soluble on expression in E. coli; label from the status in PepcDB or PDB records

| Sequence | soluble on expression in E. coli |
| --- | --- |
| MGSDKIHHHHHHMIIGNCLILKDFSSEPFWGAVEIENGTIKRVLQGEVKVDLDLSGKLVMPALFNTHTHAPMTLLRGVAEDLSFEEWLFSKVLPIEDRLTEKMAYYGTILAQMEMARHGIAGFVDMYFHEEWIAKAVRDFGMRALLTRGLVDSNGDDGGRLEENLKLYNEWNGFEGRIFVGFGPHSPYLCSEEYLKRVFDTAKSLNAPVTIHLYETSKEEYDLEDILNIGLKEVKTIAAHCVHLPERYFGVLKDIPFFVSHNPASNLKLGNGIAPVQRMIEHGMKVTLGTDGAASNNSLNLFFEMRLASLLQKAQNPRNLDVNTCLKMVTYDGAQAMGFKSGKIEEGWNADLVVIDLDLPEMFPVQNIKNHLVHAFSGEVFATMVAGKWIYFDGEYPTIDSEEVKRELARIEKELYSS | soluble |
| MSRLEAWAYLSRVFEGPSRSLQKLLETESDVEKIAWGIKKREAWLGPILFETASRYSVSLEQEDLTTIKNLGGRLVTPDDDEWPREKFETAFGFAASGTSSLVRSYQSDAVAPHALWVRGAPLSTTVDRSVAIVGTRAMSHYGKSATSMLAAGIADHHWTIVSGGALGVDTVAHTEALQRQKPTVAVCARGLDAPYPRKNAELLRSIVETGCLVSEYAPGLTPHRHRFLTRNRLVAALSQGTVVVEAAWRSGALNTLSWASALGRVAMAVPGPVTNTGSLGCHERIRNKEAELVCSAEEILALVGTLGEFDPNGQYELQFAADPIQSLSRNEMRVFDSLDANPHTTDTVAAAAGIPIGLCVHILRDLEKKQLVMREGAHWHRC | not soluble |
| MSLDSRLPAFRNLSPAARLDHIGQLLGLSHDDVSLLANAGALPMDIANGMIENVIGTFELPYAVASNFQINGRDVLVPLVVEEPSIVAAASYMAKLARANGGFTTSSSAPLMHAQVQIVGIQDPLNARLSLLRRKDEIIELANRKDQLLNSLGGGCRDIEVHTFADTPRGPMLVAHLIVDVRDAMGANTVNTMAEAVAPLMEAITGGQVRLRILSNLADLRLARAQVRITPQQLETAEFSGEAVIEGILDAYAFAAVDPYRAATHNKGIMNGIDPLIVATGNDWRAVEAGAHAYACRSGHYGSLTTWEKDNNGHLVGTLEMPMPVGLVGGATKTHPLAQLSLRILGVKTAQALAEIAVAVGLAQNLGAMRALATEGIQRGHMALHARNIAVVAGARGDEVDWVARQLVEYHDVRADRAVALLKQKRGQ | soluble |
| MSKFYSEQFKRDAVALYENNENLSLAAAAAELRVNRASLHQWKKELGTGKRTRMIEAKAQAEAASDAERIRALEKENAKLREERDILRKAAKYFAEETSWLEHHHHHH | not soluble |
| MAMMAKHQAVKKIFDQIATKYDLIDTIISLGLDQHWRRVLVSSLGLREGMRCLDCGAGSGKVTELIYFRCGGCDVTALDITDSMFNPELKKYVKFVVSPAESLPFPDASFDRVSSAFLTRNLADIDRYFAEVYRVLRPGGVFVNMDIYNPTRPVISEFFSLYFYRFVPFFGNRATGSKNYTYLANTVKYFHRPSVISQKLADRGFSVEATDLFFGAVYLHRSVKPEGRGLEHHHHHH | not soluble |
| MGSDKIHHHHHHMLLSMQGICKSFNGIPALRAASLEVGEAEVMALVGQNGAGKSTLIKILTGAYRRDEGAVVFAGEGVSFSMPAESQARGIATIYQEINLAPQRSVAENIYLSREPRRFGLIDRRAMRDGAAAVLRAFNLEIDVDQPVAGFSAATRQMVAIARAVTQKARLVIMDEPTSSLDEREVGILFDTIRTLKRGGVSVVFIGHRLEELYRICDRVTIMRDGKTVATAAMADMPKLALVRHMLGKELAAFEAIAKDADEGAQRPVRLSVRNAGAGVRVRDVSLTVREGEISGLAGLLGSGRTETANLIFGADRLQRGEIRYNGEARAYRQPADAIADGIGLVAEDRKVDGIIPDMSIRENMTLALLPKLARAGIVDRARQDEIVERYITALAIKCTSPDQPIKELSGGNQQKVLLGRWLCTDPKLLIVDEPTRGIDIGAKSEILRLLRRLADEGLGVLMISSELEELLAAADRVTVLSDGTSVAVLPRKELSEAALFAAMAHQVE | not soluble |
| MAHHHHHHMLRSPQPRFPQHVPGAYPPQQQQQMPPQPQSQPQMPMNAQPPAQAIQQQLEHQDVVHDTQFDYYGQLLATASSDRTIGIHVVQNGQLQRIATLTGHEGPVWMVSWAHPRFGMALASAGYDHKAIIWKEMSQSSKQWAPVHVIDCHHGSVNAVQWAPETPMVATASSDGTVAVTVFEGGVWRDSLKLSNNSNNIAHAMGATSVSFAPMRPSLGGAVLLASGGCDSQVRLWCLQEGSPMANSFELLEVLEGHTDWVRDVAFAPLCAATRHAVLASCGQDKSVIIHRKPWDQLGALIQERQRSSSTNGPQQYLQKESGGIWERSVVLFEEPVWRLSWSPAEEVLVVTTGDSEVYILRENGEFTQPWLKTPLSEYQSGTR | not soluble |
| TAKQRDDAIENAEAAKVESEQVAKKATEGELHLAEVLEQANLNSIELKSVSQALDEQSSQLDEQVNALNVNSESQASAAEQMSQQVHHMATGIEESSKFVEELREKSEDVHQQAEKSSELLEDSTQAIGQIITSHEEIMKVADLITSVAEANQLAGFKCGNRSGASRRSGQRFCCGCRASTRAICEE | not soluble |
| MKLNIKDVVLNYNIIGEGEPIIILHGYSVDHTIMFGCMENLFSDESRYKRIYVDLPGMGKSTSSDSIKTSDNMLDIILEFIMKVTKGENFLLVGESYGGYLSRGVVYKIREKVNGLFLICPAIIPDFNKRTVPEHVILAYDEKLMSKLNKEEAEEFSSMSVVQNEKIYLRFKEEVMSGIKLGNQDFLERLQREGYGFSFDVDKLPQKFDKPTLMLLGKQDASVGYKDAWNILDNYPRATFAVLDMAGHNLQIEQEDIFNLLGKEWISRTYREKDY | not soluble |
| MSLAATPRKLSSKEVAALVGNLMEASESTSLENGLEVRPYAFGENELNQLGDYHALRIINERFCRTARDVFLPMLRLQPRISSFPPEVRSFDDYRSSQDNFVSITASRIEELRGNQMIVIPPPFISLLTDSYYGGQIRHVPTTRTEFTATEERCIELVTDRLNVALQVAWRDLMALTFTVVSREESMQFASFVDGEDMVVNCSFMVQLPNTEPASFDILYPLQTLKPISSQLRSRMQSDFVDDDRSWREKLERAILSIPLTLSARLCEPEVPLRQLMQMQPGDVLPVHLTEALSLLVEGQPIFEAAPGERGGQAALNLTRRHVRGEGHHHHHH | soluble |
| MSLAKNIVFIGFMGSGKSTLARALAKDLDLVFLDSDFLIEQKFNQKVSEIFEQKRENFFREQEQKMADFFSSCEKACIATGGGFVNVSNLEKAGFCIYLKADFEYLKKRLDKDEISKRPLFYDEIKAKKLYNERLSKYEQKANFILNIENKNIDELLSEIKKVIKEGGSHHHHHH | soluble |
| MGSDKIHHHHHHMEKGEPIVVVKEISKSYGKVEALKEVSFAVEQGEVFGLIGPDGAGKSTLFRILTTLLLADKGTATVNGLDVVTDYKQIRTKVGYMPGRFSLYQDLSVEENLEFFATVFHTLIQENYDLIKDIYQQIEPFKKRRAGALSGGMKQKLALSCSLIHKPDILFLDEPTTGVDPVSRKEFWQMLRNLRKQGITIIVSTPIMDEARQCDRIAFINHGQVHGIDTPERILQKFASILCPPPLEREEAQQMAAPVIEVEQLTKSFGHFTAVDHISFQVQRGEIFGFLGANGAGKTTAMRMLCGLSRPTSGVGKVAGYDIFREAEQVKRHIGYMSQKFSLYEDLKVWENIRLFAGIYGMKEMEIEEKTDELLERLGFADERDTLVKNLPLGWKQKLAFSVSIFHEPKIVFLDEPTGGVDPATRRQFWELIYQAADRGITVFVTTHYMDEAEYCNRISIMVDGQIKALDTPARLKEQFGVETMDDVFQQLARHAVRKAD | not soluble |
| MEVDCRVISRGKGRGPVLVSTEPLSFLGGVDPGTGRVIDQKHPLHGRSIRGKVLLIPGGKGSTVGSYVIFQMAKNETAPAAIICLNAEPIIATGAIMAGIPMVDRPSEDLLGLLEDSMEVEVDADEGKIRF | soluble |
| MQLSPKEFEYQFRCLYRPLNMYALRYTENLDDAEDIVQQAFSDVWEKLVGGTSIQNLKAYMYQTVRNRSLTLITNRQTHCETTELTDLEDLTEEERIIRSERDARLWTAIDHLPTERKKIFLLSKRDGLTYQEIATELGISIKTVEHQISKALKTLRETAIKIYTFFFG | not soluble |
| MGSDKIHHHHHHMYPRYSEINVKEALSDTPVVFVMGPRQAGKTTLVKSLIMDMGSENWTYITLDDQAQFEIAQADPVGFVRNLPSTRIALDEVQRLPELFVSIKQAVDEQRSPGRFLLTGSANALLLPRLSDSLAGRMESVRLMTLSECEIQGRQPSFLIKLLREEAPSTQDIRVRDHLLQRLVTGCFPEPLQRANERRRQAWYQQYTSTLIQRDIRDLTHIDHPDLMAKLLKLTAFYAGKLVNLTELGGKLGLDRLTIKKYMALLEQLFLVEQLPAWHSNEYKRLVKTPKLHPVDTGMMCAVRGLNQERLLKQPGDFGLVLESFVYNELRKQSVWIDEPLNFYHYRDKDKVEVDVVIENTMGDCFAIEIKAAATLNTKDFTGLKRFQSVAGDRFKIGVLLYDGDHTTAFGDNLYAVPVGALWS | not soluble |
| MPVVTAVGRRRGFAMPWVSTARSGAVMLANYSAGVCGRVSSPGLNVRKMCLKANTPGAVTWLDTPKRFLSTQTASRCMAVNSSDVVTGRIDPQVLHTPLNTDVDGYAHAMHSSINSGPLEYLPATFSVFPALGDVGDLGGGVGAATYALDRLSNMRSGACVGGGESPWRSLMT | not soluble |
| SSTKVPIYLKRGSRKGKKEKLRDLLSSDMISPPLGDFRHTIHIGSGGGDDMFGDISFLQGKFHLLPGTAVEEAEEDGSFDLPFQFTRTTTVCGRELPDGLSPLLKNAISLPVIGGPQALTLPTAQAPPKPPRLHLESPQPSPQPSPQGAGNVDVWRIPEAGSPHNGMSPEPEAEEPFLSHASSLLSLHVDLGPSILDDVLQIMDHDLGRVQIPT | soluble |
| MQGKNTIVTTGDYSIGLLSQTSGNLNTDTIIRVNSDGSVTPSFSDGDDTFIVTAGNHAVGVLACASPGSACACVSSLDEESTADTGSNENNAIAKLDMAKGEITTHGTESYAAYANGTVVKAGDTLDYTNASVTLTDVDITTHGDNAHAIAARQGTVSFNQGEIYTTGPDAAIAKIYNGGTVTLKNTSAVAHQGSGIVLESSINGQEATVDILSGSSLRSANEILYHKDETSNVTITDSEVSSAADVFINNIKGHLTVDATNSKITGSANISTDDNTHTYLSLSDNSTWDIKADSTVSNLTVDNSTVYISRADGRDVEPTRLTITENYVGNNGVLHLRTELDDDNSATDKVVINGNTSGTTRVKVTNAGGSGAYTLNGIEIISVEGESNGEFIKDSRIFAGAYEYSLTRGNTEATNKNWYLTNFQATSGGETNSGGSSAPTVAPTPVLRPEAGSYVANLAAANTLFVMRLNDRAGETRYIDPVTEQERSSRLWLRQIGGHNAWRDSNGQLRTTSHRYVSQLGGDLLTGGFTDSDSWRLGVMAGYARDYNLTHSSVSDYRSKGSVRGYSAGLYATWFADDISKKGAYIDSWAQYSWFKNSVKGDELAYESYSAKGATVSLEAGYGFALNKSFGLEAAKYTWIFQPQAQAIWMGVDHNAHTEANGSRIENDANNNIQTRLGFRTFIRTQEKNSGPHGDDFEPFVEMNWIHNSKDFAVSMNGVKVEQDGVSNLGEIKLGVNGNLNPAASVWGNVGVQLGDNGYNDTAVMVGLKYKF | not soluble |
| MSDPAIAVLPYGMKLGPALSGLPLDQVNWPLGCPERLVGKTLGDLGAGDHLLVYPRTGTHFQLSRGTRARISLIMAEPAVIHAKHYALLRVTWRRFHRVLTFNQAAVDRLPNARLLLFGSTWVPEWQSLTPEKVAQCSLIASAKRDSTGHKLRHAVVDWVRASDQDVAVLGRGYQPFDSKADGLAPYRYSVVIENVQERNYFSEKLLDAVFCETVPIYWGCPNIADFVDTTAMILCTREEDIRRAVAEMSAEDYAARLPALRALKQQLAPYAAHEARAARMILDELLEHHHHHH | soluble |
